Our source for the in vitro methyltransferase activity of METTL6 on tRNA^SerUGA after adding SerRS (^3H-SAM incorporation) values is article PMC11479938.

The target in the assay is SerRS (full-length human seryl-tRNA synthetase) (human) (UniProt P49591).
SerRS (full-length human seryl-tRNA synthetase) (human), sequence (P49591 whole entry): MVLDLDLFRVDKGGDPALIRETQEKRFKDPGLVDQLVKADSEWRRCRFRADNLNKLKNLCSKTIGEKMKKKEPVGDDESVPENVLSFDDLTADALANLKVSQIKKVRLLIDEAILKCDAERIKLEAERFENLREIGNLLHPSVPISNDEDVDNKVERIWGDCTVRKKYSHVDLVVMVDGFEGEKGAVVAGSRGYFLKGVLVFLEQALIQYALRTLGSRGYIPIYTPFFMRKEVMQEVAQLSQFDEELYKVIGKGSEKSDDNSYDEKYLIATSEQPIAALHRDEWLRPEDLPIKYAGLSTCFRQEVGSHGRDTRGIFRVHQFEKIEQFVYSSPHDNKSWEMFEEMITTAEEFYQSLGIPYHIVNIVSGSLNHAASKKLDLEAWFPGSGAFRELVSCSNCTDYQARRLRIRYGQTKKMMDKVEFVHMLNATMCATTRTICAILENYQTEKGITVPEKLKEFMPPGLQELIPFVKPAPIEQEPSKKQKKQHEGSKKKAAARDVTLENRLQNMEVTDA

“METTL6 (full-length human m^3C tRNA methyltransferase) (from UniProt Q8TCB7 1-284) (enzyme)”: the in vitro methyltransferase activity of METTL6 on tRNA^SerUGA after adding SerRS (^3H-SAM incorporation) turned out to be 1000 fold.
